Experimental data reported in the MegaScale stability set (Tsuboyama et al. 2023).

B1: 5KPH (parent)
chain: EEKRQVKQVAKEKLLEQSPNSKVQVRRVQKQGNTIRVELELRTNGKKENYTVEVERQGNTWTVKRITRT
B2: EEHEE_rd3_1049 (parent)
chain: TTVKLGDIKVTFDNPEKAKKYAQKLAKIYQLTVHVHGDTIHVK

Variants of: B1
Experiment: folding stability dG (cDNA display proteolysis); higher = more stable
Details: PBS, room temperature

Folding stability dG [kcal/mol]: each site, then its substitutions
T69: L 3.98, D 3.73, W 4.08, H 4.21, P 2.87, M 4.13, S 3.75, G 3.7, F 3.52, Y 4, R 3.89, I 3.99, N 3.87, C 3.56, A 3.68, E 3.82, K 3.73, V 3.86, Q 3.9
T67: S 3.68, Y 4.38, P 1.34, W 4.45, M 3.98, Q 3.54, N 3.32, V 3.96, R 3.73
R68: P 3.54, T 3, W 3.07, V 3.46, N 3.89, Y 3.32, D 2.65, E 3.13, Q 3.73, I 3.67, G 2.87, S 3.21, L 4.21, A 3.4, K 3.99, H 3.59, C 3.34, M 3.95, F 3.53

Variants of: B2
Experiment: as above
Details: PBS, room temperature

Folding stability dG [kcal/mol] of substitutions, site by site:
T1: I 2.27, V 2.14, S 1.23, W 2.77, R 1.28, G 0.959, Y 2.52, C 3.02, N 1.1, Q 1.06, F 2.42, K 1.19, L 1.76, E 0.641, A 1.43, M 2.14, D 0.651, H 1.56, P 1.02
I8: T 1.54, D 0.538, V 1.88, R 1.94, C 3.42, M 2.1, P 0.237, G 0.616, W 3.22, E 0.747, Q 1.28, K 1.83, N 1.21, L 2.19, A 1.18, H 2.62, S 1.37, F 2.95, Y 2.87
D13: C 2.6, P 1.58, A 2.11, R 2.13, L 2.08, E 1.9, Q 2.1, F 1.93, V 1.89, G 1.69, K 2.2, W 2.01, I 1.96, Y 1.85, M 2.12, S 2.25, N 1.98, H 1.86, T 2.16
T2: H 1.82, L 1.51, K 1.26, D 1.01, V 2.12, P 0.739, N 1.17, Q 1.28, W 1.6, S 1.4, A 1.22, R 1.03, G 0.901, M 1.65, Y 1.72, F 1.67, C 2.33, I 2.23, E 1.06
D7: C 3.56, R 3.21, L 2.69, W 3.24, M 2.63, G 2.39, Q 2.5, V 2.52, H 2.79, F 2.83, I 2.64, K 3.17, Y 2.94, T 2.56, S 2.73, E 1.97, N 2.85, P 2.31, A 2.6
V3: F 0.742, N 0.593, A 0.626, I 1.34, C 2.3, R 0.673, T 0.665, M 0.732, W 0.663, K 0.686, Y 0.622, E 0.57, P 0.746, L 1.09, G 0.742, H 0.671, D 0.577, Q 0.609, S 0.71
N14: Q 1.25, M 1.2, F 1.2, S 2.12, K 1.25, G 1.05, E 1.4, H 1.61, T 1.98, Y 1.05, V 1.12, C 2.02, D 2.38, R 1.26, W 1.34, P 0.431, L 1.32, A 1.18, I 1.22
V10: T 1.12, G 0.275, K 1.72, W 3.21, F 2.35, M 2, I 2.48, E 0.411, P 0.26, D 0.272, C 2.92, A 0.985, Y 1.95, L 2.08, N 0.575, H 1.06, S 0.658, Q 0.914, R 1.79
T11: H 2.31, R 2.24, G 0.999, V 2.42, I 2.33, M 2.15, P 1.05, F 2.51, K 2.06, E 1.58, Y 2.69, C 2.98, W 2.74, N 1.65, L 2.21, D 1.08, Q 1.88, S 1.77, A 1.48
L5: A 0.939, Q 0.604, R 0.884, F 2.71, C 3.38, P 0.495, M 2.24, K 0.76, G 0.536, Y 2.12, N 0.735, D 0.531, W 2.83, V 2.08, I 2.79, S 0.683, E 0.422, H 1.59, T 0.739
F12: Q 0.131, E 0.041, T 0.094, K 0.115, Y 0.563, I 0.634, L 0.617, R 0.188, G -0.438, W 0.742, S -0.062, C 1.74, H 0.172, P 0.089, V 0.419, M 0.628, N -0.055, D -0.148, A 0.107
G6: E 0.771, L 1.61, R 1.76, C 3.09, W 2.23, P 0.61, A 1.24, M 1.55, N 1.45, D 0.87, S 1.05, Q 1.12, Y 1.89, F 2.02, V 1.2, T 0.948, K 1.41, I 1.49, H 1.75
E16: C 2.66, D 1.96, A 1.94
K9: Q 2.06, E 2.27, N 1.76, S 2.43, H 2.06, W 2.47, F 2.24, M 2.34, A 2.06, C 3.33, V 2.38, L 2.39, P 0.591, R 2.23, I 2.46, D 1.28, G 1.25, T 2.42, Y 2.42
P15: S 1.59, V 1.96, T 1.4, W 2.47, Q 1.65, E 1.72, I 2.01, G 1.3, N 1.43, A 2.09, H 2.04, K 1.78, M 2.1, F 3.11, D 1.16, R 1.88, L 2.08, Y 2.53
K4: N 1.34, F 2.4, M 2.47, C 3.22, R 2.18, P 0.652, Y 2.5, S 1.61, E 1.6, W 2.76, L 2.47, T 1.85, D 1.09, V 2.91, G 0.845, H 2.07, A 1.71, I 3.17, Q 2.35
